The source of these data is US7452701B2, “Methods for the preparation of β-amino acids” (Wisconsin Alumni Research Foundation, priority 1998, dated 2008).

Data set [1] has as its target T1, Escherichia coli 2,3-aminomutase (P39280 protein) (Escherichia coli, UniProt P39280).
T1 sequence (P39280 whole entry, looked up): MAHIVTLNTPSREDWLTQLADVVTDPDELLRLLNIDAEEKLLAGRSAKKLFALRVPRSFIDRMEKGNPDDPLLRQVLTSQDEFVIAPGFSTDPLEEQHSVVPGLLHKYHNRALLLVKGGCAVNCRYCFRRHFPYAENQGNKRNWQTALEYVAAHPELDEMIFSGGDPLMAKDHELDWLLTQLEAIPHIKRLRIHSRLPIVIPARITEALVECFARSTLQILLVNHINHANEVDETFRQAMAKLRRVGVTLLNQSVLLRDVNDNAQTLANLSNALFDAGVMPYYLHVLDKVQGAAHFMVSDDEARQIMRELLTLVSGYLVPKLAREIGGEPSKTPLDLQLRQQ
In words: Lysine 2,3-aminomutase activity of E. coli P39280 protein, HPLC of PITC derivatives. Type of data set: biochemical. The note with it: L-lysine 44 mM, 37° C. for 60 min. As for the experimental part:
Lysine 2,3-aminomutase activity was measured with the Escherichia coli 2,3-aminomutase (P39280 protein) as described for alanine 2,3-aminomutase (see Example 5) with the following exceptions: P39280 protein, (25.4 μM-subunit); S-(5′-adenosyl)-L-methionine 90 μM; sodium hydrosulfite 2.3 mM; L-lysine 44 mM. The reaction was conducted at 37° C. for 60 min. The HPLC gradient established was 0-10% Buffer B in 35 min, 10-30% Buffer B in 35 min, 30-55% Buffer B in 35 min, and 55-100% Buffer B in 20 min. The PITC derivative of L-lysine eluted at a retention time of 101 min whereas the PITC derivative of β-lysine eluted at 95.6 min.

In data set [2] the target is T2, Clostridial lysine 2,3-aminomutase (Clostridium subterminale, UniProt Q9XBQ8).
T2 construct: made in house; host or cells: E. coli BL21(DE3) with pET-23a(+) (lysine 2,3-aminomutase gene) and pAlter-Ex2 (dnaY gene)
In words: Lysine 2,3-aminomutase activity, conversion of C-14 L-α-lysine to L-β-lysine (paper electrophoresis). Type of data set: biochemical, Clostridium subterminale SB4. The note with it: purified recombinant produced enzyme. As for the experimental part: Aerobically grown E. coli cells (1 ml) containing the pET 23a(+) plasmid vector with the Clostridial lysine 2,3-aminomutase gene and the p-Alter-EX2 plasmid vector with the E. coli dnaY gene were used to seed a glass fermentor (Virtis Laboratory Fermentor #233395, Virtis Corporation, Gardiner, N.Y.) containing 15 liters of 2×YT media (240 gm Difco Bactotryptone, 150 gm Bacto yeast extract, […], Difco Laboratories, Detroit, Mich.) and supplemented with 50 μM Fe(II)SO4, 50 μM ZnSO4, 50 μM Na2S, 4 mM sodium thioglycolate, 100 μg/ml ampicillin, and 10 μg/ml tetracycline. The sealed flask was made anaerobic by gentle bubbling of nitrogen gas for 3 hours prior to cell inoculation. Anaerobicity was monitored by the presence of a small quantity of methylene blue (10 mg) which remains colorless in the absence of oxygen. After approximately 14 hours anaerobic culture at 37° C. when the cell density had reached 0.05 OD (optical density) at 600 nm, 0.2% (w/v) D-(+) glucose was added. […]
The supernatant was used to measure L-β-lysine formation according to the procedure of Ballinger et al. Biochemistry 31:10782 (1992). […] The mixture was spotted onto chromatography paper (Whatman #3001917, Whatman, LTD, Maidstone, England), the amino acids separated by electrophoresis and radioactivity measured according to the published procedure. […]

B1: P39280-protein: E. coli polypeptide, SEQ ID NO: 4, distant homologue of lysine 2,3-aminomutase from Cl. subterminale (protein, listed as Escherichia coli)
chain: T1 sequence (P39280 whole entry, looked up)
B1: the “2,3-aminomutase activity toward L-lysine” value in data set [1] is on record as “does display 2,3-aminomutase activity”.

B2: purified recombinant produced lysine 2,3-aminomutase: Clostridial lysine 2,3-aminomutase expressed in E. coli and purified (protein, UniProt Q9XBQ8 1-416, looked up)
L-lysine 2,3-aminomutase: MINRRYELFKDVSDADWNDWRWQVRNRIETVEELKKYIPLTKEEEEGVAQCVKSLRMAITPYYLSLIDPNDPNDPVRKQAIPTALELNKAAADLEDPLHEDTDSPVPGLTHRYPDRVLLLITDMCSMYCRHCTRRRFAGQSDDSMPMERIDKAIDYIRNTPQVRDVLLSGGDALLVSDETLEYIIAKLREIPHVEIVRIGSRTPVVLPQRITPELVNMLKKYHPVWLNTHFNHPNEITEESTRACQLLADAGVPLGNQSVLLRGVNDCVHVMKELVNKLVKIRVRPYYIYQCDLSLGLEHFRTPVSKGIEIIEGLRGHTSGYCVPTFVVDAPGGGGKTPVMPNYVISQSHDKVILRNFEGVITTYSEPINYTPGCNCDVCTGKKKVHKVGVAGLLNGEGMALEPVGLERNKRHVQE
On to B2, for which, in data set [2], the enzyme activity is recorded as 34.5±1.6 μmoles lysine min^1 mg^−1 protein.
